From patent US20240132615A1 come the findings set out here.

The target in one assay is soluble BCMA (UniProt Q02223). The assay can be described thus: cell-based or functional assay.
The target of assay [1] is human CD38 on multiple myeloma cells (human) (UniProt P28907). The assay can be described thus: flow cytometry on NCI-H929 BCMA KO cells (BCMA-negative, CD38-positive). (In general: In flow cytometry, cells or beads pass a laser one at a time.)

Sequence of soluble BCMA (Q02223 1-54 limits assumed): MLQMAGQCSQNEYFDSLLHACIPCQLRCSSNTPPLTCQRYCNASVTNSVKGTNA

In the assay with soluble BCMA, alnuctamab (bispecific antibody) came in with a Fold difference to no soluble factor condition (EC50 from % Cytotoxicity), sBCMA of 380 fold and a Fold difference to no soluble factor condition (EC50 from % Killing to No Ab), sBCMA of 367 fold. The substance also gave a Maximum binding (RFI) in assay [1] of 101 RFI.
In the same order, the values of teclistamab (bispecific antibody) are 75 fold, 30 fold and 104 RFI.
